Measured values published in paper PMC6405639.

Biological target: 5(6)-TAMRA-Ahx(5-24)NPY (porcine)
Assay: fluorescence polarisation; homogenous binding assay; 5 nM 5(6)-TAMRA-Ahx(5-24)NPY with increasing concentrations of affinity purified Y2R_cysteine_deficient in Brij-58 micelles in binding buffer, 60 min, room temperature; fall of fluorescence in the S-plane; the paper says that the EC50 constitutes the Kd

B1: Y2R_cysteine_deficient with C-terminal deca-histidine-tag (cell-free expressed) (receptor)
chain: MGPIGAEADENQTVEEMKVEQYGPQTTPRGELVPDPEPELIDSTKLIEVQVVLILAYASIILLGVIGNSLVIHVVIKFKSMRTVTNFFIANLAVADLLVNTLSLPFTLTYTLMGEWKMGPVLCHLVPYAQGLAVQVSTITLTVIALDRHRSIVYHLESKISKRISFLIIGLAWGISALLASPLAIFREYSLIEIIPDFEIVACTEKWPGEEKSIYGTVYSLSSLLILYVLPLGIISFSYTRIWSKLKNHVSPGAANDHYHQRRQKTTKMLVAVVVVFAVSWLPLHAFQLAVDIDSQVLDLKEYKLIFTVFHIIAMASTFANPLLYGWMNSNYRKAFLSAFRAEQRLDAIHSEVSVTFKAKKNLEVRKNSGPNDSFTEATNV
EC50: 49 nM
